Source: the supplement of paper PMC9170038

Experiments:
MS2 coat protein [1] = assay: apparent KD of MS2 coat protein; designed switch direction (-1 OFF switch, 1 ON switch): 1; higher = weaker reporter binding
Summary of the method: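 The apparent KD reported per design is the median over clusters of curve fits to normalised cluster fluorescence. The RNA switches were transcribed on Illumina chips by stalled E. coli RNA polymerase. SNAP-549-labelled MS2 coat protein was titrated from 0.7 or 1.5 nM, doubling up to 3 µM, in Tris-HCl pH 7.5 buffer containing KCl, MgCl2, BSA, DTT, tRNA and Tween-20, with no input, 200 uM small-molecule ligand, or an oligonucleotide input.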

MS2 coat protein [2] = assay: apparent KD of MS2 coat protein; higher = weaker reporter binding; settings: Eterna round: R107
Summary of the method: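 Designed RNA switches were transcribed on-chip from Illumina sequencing clusters. SNAP-549-labelled MS2 coat protein was titrated onto them in twofold steps from 0.7 or 1.5 nM to 3 µM in 100 mM Tris-HCl pH 7.5, 80 mM KCl, 4 mM MgCl2, either without or with constant ligand. Apparent KD reflects the per-design median of normalised cluster binding-curve fits.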

[3] = input ligand: microRNA oligo, concentration not stated
[4] = Eterna round: R95, input ligand: FMN 200 uM
[5] = Eterna round: R95, input ligand: microRNA oligo, concentration not stated
[6] = Eterna round: R95, input ligand: none
[7] = input ligand: theophylline 20 uM
[8] = input ligand: tryptophan 2.4 mM

Sequence | apparent KD of MS2 coat protein (MS2 coat protein [1]; input ligand: FMN 200 uM) [nM] | apparent KD of MS2 coat protein (MS2 coat protein [1]; [3]) [nM] | apparent KD of MS2 coat protein (MS2 coat protein [1]; input ligand: none) [nM] | further results
GGUCGGACUCACAUGAGGAUCACCCAUGUUGGCGAAAGCCGGCAGGAUAUCUGUCCGAAAAGGUCAGAGAAGGGUCAACCGACC [Fiskers NG3ss - 59] (Eterna round: R96, puzzle: Same State NG 3) | 322 | 82.4 | 267 | –
UGGUACAUGGGAGGAUAUCUCAUGGAGACAUGAGGAUCACCCAUGUAGAUGGCCGGUAACCGGAGAGAGAAGGCCCAUGUACCU [JL SSNG1 3.67] (Eterna round: R96, puzzle: Same State NG 2) | 79.6 | 152 | 198 | –
GCUAGAAAUAAUGCCAACAUGAGGAUCACCCAUGUAUGUUGGCAGGAUAUCGUUUGCUUUGCAAACGAGAAGGGCUAAACUAGC [Mat - Same State NG 3 - JL Mod - D7] (Eterna round: R96, puzzle: Same State NG 3) | 280 | 296 | 280 | –
UAGUGAUUGCAAGGAUAUGCUAGUUUUUAUUUGUGUUUGAUAUCUAACAUGAGGAUCACCCAUGUGCAGAAGGUGCUUGAUUUG [JR_SSNG2_Sub077] (Eterna round: R96, puzzle: Same State NG 2) | – | 68.6 | – | –
UACAAUCUAUCUGAGGAUAUCAUGAAGAAAACAUGAGGAUCACCCAUGUGCAGGAGAACUGCAAAUGAGAAGGCAGAUAGAUUGU [Mat - Same State 2 - Mod - D1] (puzzle: Same State 2) | – | – | – | apparent KD of MS2 coat protein (MS2 coat protein [1]; [4]): 9.46 nM; apparent KD of MS2 coat protein (MS2 coat protein [1]; [5]): 12.9 nM; apparent KD of MS2 coat protein (MS2 coat protein [1]; [6]): 13.4 nM
GUUACAUGAGGAUCACCCAUGUAUGUGUGGGAGUAAGUGUCUUAGGAUAUCUAUGAUUUAGUUUAAGAGAAGGAAGAUUGUUGU [JMF's solution 79] (Eterna round: R96, puzzle: Same State NG 3) | 117 | 86.3 | 111 | –
GCCAACUCAUGAGGAUAUGGCACCUUAUUGGUGCCAGAAGGCAUGUCUAUUGACAUGAGGAUCACCCAUGUAUUAUUGUUGGCA [Fiskers NG1ss - 24] (Eterna round: R96, puzzle: Same State NG 1) | 80 | 717 | 893 | –
GGUAAACAUGAGGAUCACCCAUGUAAUAUAAUGGGAGGAUAUCUGAAUUAAUUAAAUUAAGGAGAAGGCCUAAUGG [Mat - Same State 1 - Mod of Eli - D49] (puzzle: Same State 1) | – | – | – | apparent KD of MS2 coat protein (MS2 coat protein [1]; [4]): 248 nM; apparent KD of MS2 coat protein (MS2 coat protein [1]; [5]): 245 nM; apparent KD of MS2 coat protein (MS2 coat protein [1]; [6]): 321 nM
UGGUACAUGGGAGGAUAUCUCGUGGAGACAUGAGGAUCACCCAUGUAGAUGGCCGGUAACCGGAGAGAGAAGGCCCAUGUACCU [JL SSNG1 3.68] (Eterna round: R96, puzzle: Same State NG 2) | 66.9 | 65.4 | 159 | –
AUUCUUAAUGCAGGAUAUGAUUAACAUGAGGAUCACCCAUGUGGUGUUGUGAGUAAGGAGAGUGAUCAGAAGGGCAUUUUUUUU [JMF's solution 32] (Eterna round: R96, puzzle: Same State NG 2) | 316 | 271 | 210 | –
UCUUGGUUUUUGCUCGUUUUUUGUGUUGAACAUGAGGAUCACCCAUGUAUUGUACAGUCCGAUUUAAUAAUGGUCCG [JMF 57] (puzzle: Sensor for hsa-mir-208a) | – | – | – | apparent KD of MS2 coat protein (MS2 coat protein [1]; [4]): 31.5 nM; apparent KD of MS2 coat protein (MS2 coat protein [1]; [5]): 26 nM; apparent KD of MS2 coat protein (MS2 coat protein [1]; [6]): 33.8 nM
GGUGCAAUUAACGCCUACAUGAGGAUCACCCAUGUAUGUAGGCAGGAUAUCGUUUGCUUUGCAAACGAGAAGGGCUAUAGUACC [JL SSNG3 1.15] (Eterna round: R96, puzzle: Same State NG 3) | 54.4 | 130 | 157 | –
AAAAUAAGCCCUUGCACAUGAGGAUCACCCAUGUUCGGUUCACAGGAUAUCUAGUCAAACGGGCUGGAGAAGGGUGGCAAGGAC [Xequusceus] (Eterna round: R96, puzzle: Same State NG 3) | 67.7 | 278 | 227 | –
GGAGCCGGUACUGAGGAUAUUUAUAUUAAAACAUGAGGAUCACCCAUGUAGGCCAGAAGGCCUUGGGAGAAGGCAGAUCGGCUCC [Biseusra - 5] (puzzle: Same State 2) | – | – | – | apparent KD of MS2 coat protein (MS2 coat protein [1]; [4]): 15.1 nM; apparent KD of MS2 coat protein (MS2 coat protein [1]; [5]): 46.2 nM; apparent KD of MS2 coat protein (MS2 coat protein [1]; [6]): 72.8 nM
GAUCCUCAUACGGAUACCAGCGAAUAACAUGAGGAUCACCCAUGUAAUAAAGAAAAUAAAUGCCCUUGGCAGCCGAAUAGAUAGU [Same State Theophylline B GF 1] | – | – | – | apparent KD of MS2 coat protein (MS2 coat protein [2]; input ligand: arginine 13.2 mM): 36.2 nM; apparent KD of MS2 coat protein (MS2 coat protein [2]; [7]): 137 nM; apparent KD of MS2 coat protein (MS2 coat protein [2]; [8]): 91.1 nM
AUACAUGAGGAUCACCCAUGUCAUUCAGAAGGAGCGUCAUUUUAGACAGGUAGGUCGCUGUUAUUGGUAUUAUACUUUAUGUUUA [JR_ExcArginiA_Sub024] | – | – | – | apparent KD of MS2 coat protein (MS2 coat protein [2]; input ligand: arginine 13.2 mM): 20.1 nM; apparent KD of MS2 coat protein (MS2 coat protein [2]; input ligand: none): 22.9 nM; apparent KD of MS2 coat protein (MS2 coat protein [2]; [7]): 34.9 nM; apparent KD of MS2 coat protein (MS2 coat protein [2]; input ligand: theophylline 2 mM): 24.7 nM; apparent KD of MS2 coat protein (MS2 coat protein [2]; [8]): 28.9 nM
AAAUAAAUAACUGAUACCAGUGUACUGACAUGAGGAUCACCCAUGUUGGGUUUGGUUGUACACCCUUGGCAGCAGAAAUAUAAAA [test (nupak] | – | – | – | apparent KD of MS2 coat protein (MS2 coat protein [2]; input ligand: arginine 13.2 mM): 15.4 nM; apparent KD of MS2 coat protein (MS2 coat protein [2]; [7]): 20.6 nM; apparent KD of MS2 coat protein (MS2 coat protein [2]; [8]): 15.1 nM
AUGUCAUUGGUGUAGCUGUGAAGUGGCGAUACCAGCGUGGAAACACGCCCUUGGCAGCGCCAAAACAUGAGGAUCACCCAUGUUA [#23 Exclusion-TheophyllineA] | – | – | – | apparent KD of MS2 coat protein (MS2 coat protein [2]; input ligand: arginine 13.2 mM): 19 nM; apparent KD of MS2 coat protein (MS2 coat protein [2]; [7]): 56.3 nM; apparent KD of MS2 coat protein (MS2 coat protein [2]; [8]): 22.9 nM
